From PMC10786891, “Massively parallel profiling of RNA-targeting CRISPR-Cas13d”

T1: EsCas13d, nuclease-dead (Eubacterium siraeum, UniProt B0MS50, R295A;H300A;R849A;H854A)
T1 sequence: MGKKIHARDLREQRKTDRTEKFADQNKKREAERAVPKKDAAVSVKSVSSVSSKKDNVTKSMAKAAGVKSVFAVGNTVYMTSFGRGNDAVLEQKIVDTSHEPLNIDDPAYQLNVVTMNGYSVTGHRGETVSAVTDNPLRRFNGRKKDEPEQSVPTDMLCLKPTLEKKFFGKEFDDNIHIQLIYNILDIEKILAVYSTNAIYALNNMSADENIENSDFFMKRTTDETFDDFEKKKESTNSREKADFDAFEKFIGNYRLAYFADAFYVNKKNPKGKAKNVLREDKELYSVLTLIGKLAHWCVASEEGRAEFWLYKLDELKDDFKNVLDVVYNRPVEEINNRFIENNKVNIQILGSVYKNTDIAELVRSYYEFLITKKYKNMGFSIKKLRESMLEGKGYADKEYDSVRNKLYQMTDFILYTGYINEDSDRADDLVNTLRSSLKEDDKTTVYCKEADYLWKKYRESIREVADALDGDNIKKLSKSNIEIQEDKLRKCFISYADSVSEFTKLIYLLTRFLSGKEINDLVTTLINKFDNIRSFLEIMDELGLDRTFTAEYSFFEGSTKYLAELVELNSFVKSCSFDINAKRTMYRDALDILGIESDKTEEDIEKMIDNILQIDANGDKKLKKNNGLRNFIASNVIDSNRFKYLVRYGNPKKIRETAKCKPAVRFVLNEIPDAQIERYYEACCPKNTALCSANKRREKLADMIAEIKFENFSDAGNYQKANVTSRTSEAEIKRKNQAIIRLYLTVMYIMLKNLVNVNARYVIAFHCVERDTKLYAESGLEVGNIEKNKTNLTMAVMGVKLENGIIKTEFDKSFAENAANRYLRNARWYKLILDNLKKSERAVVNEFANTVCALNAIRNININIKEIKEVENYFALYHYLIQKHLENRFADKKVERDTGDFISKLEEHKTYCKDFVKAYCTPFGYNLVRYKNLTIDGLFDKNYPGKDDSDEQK

B1: target 1 insC 3' of 10,insA 3' of 10 (mixed)
RNA 1: CACCCGUGCAAAAAUGCAGGGGUCUAAAACUGAGCGGAUAACCUCUCUAUGG
RNA 2: GGGAAUGGAUCCACAUCUACGAAUUCGUACCAUAGAGAGGUUCAAUCCGCUCACCGAGAUCGGAAGAGCACACGU
B2: target 1 G12U,C22G (mixed)
RNA 1: CACCCGUGCAAAAAUGCAGGGGUCUAAAACUGAGCGGAUAACCUCUCUAUGG
RNA 2: GGGAAUGGAUCCACAUCUACGAAUUCGUAGCAUAGAGAGUUUAUCCGCUCACCGAGAUCGGAAGAGCACACGU
B3: target 1 insA 3' of 8,insC 3' of 3 (mixed)
RNA 1: CACCCGUGCAAAAAUGCAGGGGUCUAAAACUGAGCGGAUAACCUCUCUAUGG
RNA 2: GGGAAUGGAUCCACAUCUACGAAUUCGUACCAUAGAGAGGUUAUACCGCUCCACCGAGAUCGGAAGAGCACACGU
B4: target 1 insA 3' of 6,insU 3' of 1 (mixed)
RNA 1: CACCCGUGCAAAAAUGCAGGGGUCUAAAACUGAGCGGAUAACCUCUCUAUGG
RNA 2: GGGAAUGGAUCCACAUCUACGAAUUCGUACCAUAGAGAGGUUAUCCAGCUCAUCCGAGAUCGGAAGAGCACACGU
B5: target 1 C4A,A18G (mixed)
RNA 1: CACCCGUGCAAAAAUGCAGGGGUCUAAAACUGAGCGGAUAACCUCUCUAUGG
RNA 2: GGGAAUGGAUCCACAUCUACGAAUUCGUACCAUGGAGAGGUUAUCCGAUCACCGAGAUCGGAAGAGCACACGU
B6: target 1 G5U,U10A (mixed)
RNA 1: CACCCGUGCAAAAAUGCAGGGGUCUAAAACUGAGCGGAUAACCUCUCUAUGG
RNA 2: GGGAAUGGAUCCACAUCUACGAAUUCGUACCAUAGAGAGGUAAUCCUCUCACCGAGAUCGGAAGAGCACACGU
B7: target 1 insU 3' of 17,insG 3' of 3 (mixed)
RNA 1: CACCCGUGCAAAAAUGCAGGGGUCUAAAACUGAGCGGAUAACCUCUCUAUGG
RNA 2: GGGAAUGGAUCCACAUCUACGAAUUCGUACCAUAGUAGAGGUUAUCCGCUGCACCGAGAUCGGAAGAGCACACGU
B8: target 1 insC 3' of 17,insA 3' of 7 (mixed)
RNA 1: CACCCGUGCAAAAAUGCAGGGGUCUAAAACUGAGCGGAUAACCUCUCUAUGG
RNA 2: GGGAAUGGAUCCACAUCUACGAAUUCGUACCAUAGCAGAGGUUAUCACGCUCACCGAGAUCGGAAGAGCACACGU
B9: target 1 C6U,G17A (mixed)
RNA 1: CACCCGUGCAAAAAUGCAGGGGUCUAAAACUGAGCGGAUAACCUCUCUAUGG
RNA 2: GGGAAUGGAUCCACAUCUACGAAUUCGUACCAUAAAGAGGUUAUCUGCUCACCGAGAUCGGAAGAGCACACGU
B10: target 1 insU 3' of 18,insA 3' of 5 (mixed)
RNA 1: CACCCGUGCAAAAAUGCAGGGGUCUAAAACUGAGCGGAUAACCUCUCUAUGG
RNA 2: GGGAAUGGAUCCACAUCUACGAAUUCGUACCAUAUGAGAGGUUAUCCGACUCACCGAGAUCGGAAGAGCACACGU
B11: target 1 U8C,G13A (mixed)
RNA 1: CACCCGUGCAAAAAUGCAGGGGUCUAAAACUGAGCGGAUAACCUCUCUAUGG
RNA 2: GGGAAUGGAUCCACAUCUACGAAUUCGUACCAUAGAGAAGUUACCCGCUCACCGAGAUCGGAAGAGCACACGU
B12: target 1 G12A,C21U (mixed)
RNA 1: CACCCGUGCAAAAAUGCAGGGGUCUAAAACUGAGCGGAUAACCUCUCUAUGG
RNA 2: GGGAAUGGAUCCACAUCUACGAAUUCGUACUAUAGAGAGAUUAUCCGCUCACCGAGAUCGGAAGAGCACACGU
B13: target 1 G5A,G13A (mixed)
RNA 1: CACCCGUGCAAAAAUGCAGGGGUCUAAAACUGAGCGGAUAACCUCUCUAUGG
RNA 2: GGGAAUGGAUCCACAUCUACGAAUUCGUACCAUAGAGAAGUUAUCCACUCACCGAGAUCGGAAGAGCACACGU
B14: target 1 A18U,C21A (mixed)
RNA 1: CACCCGUGCAAAAAUGCAGGGGUCUAAAACUGAGCGGAUAACCUCUCUAUGG
RNA 2: GGGAAUGGAUCCACAUCUACGAAUUCGUACAAUUGAGAGGUUAUCCGCUCACCGAGAUCGGAAGAGCACACGU
B15: target 1 insA 3' of 6,insA 3' of 2 (mixed)
RNA 1: CACCCGUGCAAAAAUGCAGGGGUCUAAAACUGAGCGGAUAACCUCUCUAUGG
RNA 2: GGGAAUGGAUCCACAUCUACGAAUUCGUACCAUAGAGAGGUUAUCCAGCUCAACCGAGAUCGGAAGAGCACACGU
B16: target 1 G12A,G13C (mixed)
RNA 1: CACCCGUGCAAAAAUGCAGGGGUCUAAAACUGAGCGGAUAACCUCUCUAUGG
RNA 2: GGGAAUGGAUCCACAUCUACGAAUUCGUACCAUAGAGACAUUAUCCGCUCACCGAGAUCGGAAGAGCACACGU
B17: target 1 complement block 1-3 (mixed)
RNA 1: CACCCGUGCAAAAAUGCAGGGGUCUAAAACUGAGCGGAUAACCUCUCUAUGG
RNA 2: GGGAAUGGAUCCACAUCUACGAAUUCGUACCAUAGAGAGGUUAUCCGCAGUCCGAGAUCGGAAGAGCACACGU
B18: target 1 del15,del20 (mixed)
RNA 1: CACCCGUGCAAAAAUGCAGGGGUCUAAAACUGAGCGGAUAACCUCUCUAUGG
RNA 2: GGGAAUGGAUCCACAUCUACGAAUUCGUACCUAGAAGGUUAUCCGCUCACCGAGAUCGGAAGAGCACACGU
B19: target 1 U3C,U10C (mixed)
RNA 1: CACCCGUGCAAAAAUGCAGGGGUCUAAAACUGAGCGGAUAACCUCUCUAUGG
RNA 2: GGGAAUGGAUCCACAUCUACGAAUUCGUACCAUAGAGAGGUCAUCCGCCCACCGAGAUCGGAAGAGCACACGU
B20: target 1 C2U,G12U (mixed)
RNA 1: CACCCGUGCAAAAAUGCAGGGGUCUAAAACUGAGCGGAUAACCUCUCUAUGG
RNA 2: GGGAAUGGAUCCACAUCUACGAAUUCGUACCAUAGAGAGUUUAUCCGCUUACCGAGAUCGGAAGAGCACACGU
B21: target 1 insA 3' of 4 (mixed)
RNA 1: CACCCGUGCAAAAAUGCAGGGGUCUAAAACUGAGCGGAUAACCUCUCUAUGG
RNA 2: GGGAAUGGAUCCACAUCUACGAAUUCGUACCAUAGAGAGGUUAUCCGCAUCACCGAGAUCGGAAGAGCACACGU
B22: target 1 del9,del20 (mixed)
RNA 1: CACCCGUGCAAAAAUGCAGGGGUCUAAAACUGAGCGGAUAACCUCUCUAUGG
RNA 2: GGGAAUGGAUCCACAUCUACGAAUUCGUACCUAGAGAGGUUUCCGCUCACCGAGAUCGGAAGAGCACACGU
B23: target 1 U3G,U8C (mixed)
RNA 1: CACCCGUGCAAAAAUGCAGGGGUCUAAAACUGAGCGGAUAACCUCUCUAUGG
RNA 2: GGGAAUGGAUCCACAUCUACGAAUUCGUACCAUAGAGAGGUUACCCGCGCACCGAGAUCGGAAGAGCACACGU
B24: target 1 insC 3' of 22 (mixed)
RNA 1: CACCCGUGCAAAAAUGCAGGGGUCUAAAACUGAGCGGAUAACCUCUCUAUGG
RNA 2: GGGAAUGGAUCCACAUCUACGAAUUCGUACCCAUAGAGAGGUUAUCCGCUCACCGAGAUCGGAAGAGCACACGU
B25: target 1 insA 3' of 22,insU 3' of 12 (mixed)
RNA 1: CACCCGUGCAAAAAUGCAGGGGUCUAAAACUGAGCGGAUAACCUCUCUAUGG
RNA 2: GGGAAUGGAUCCACAUCUACGAAUUCGUACACAUAGAGAGGUUUAUCCGCUCACCGAGAUCGGAAGAGCACACGU
B26: target 1 insG 3' of 14,insA 3' of 13 (mixed)
RNA 1: CACCCGUGCAAAAAUGCAGGGGUCUAAAACUGAGCGGAUAACCUCUCUAUGG
RNA 2: GGGAAUGGAUCCACAUCUACGAAUUCGUACCAUAGAGAGGAGUUAUCCGCUCACCGAGAUCGGAAGAGCACACGU
B27: target 1 insU 3' of 21,insG 3' of 16 (mixed)
RNA 1: CACCCGUGCAAAAAUGCAGGGGUCUAAAACUGAGCGGAUAACCUCUCUAUGG
RNA 2: GGGAAUGGAUCCACAUCUACGAAUUCGUACCUAUAGAGGAGGUUAUCCGCUCACCGAGAUCGGAAGAGCACACGU
B28: target 1 G17C,C22A (mixed)
RNA 1: CACCCGUGCAAAAAUGCAGGGGUCUAAAACUGAGCGGAUAACCUCUCUAUGG
RNA 2: GGGAAUGGAUCCACAUCUACGAAUUCGUAACAUACAGAGGUUAUCCGCUCACCGAGAUCGGAAGAGCACACGU

Target: T1, EsCas13d, nuclease-dead
Assay: crRNA (strand 1, pre-loaded); Mg2+; 40 mM Tris-HCl pH 7.5, 150 mM NaCl, 6 mM MgCl2, 1 mM DTT, 0.1% Tween-20, 0.2 mg/ml BSA; 25 C; 10 min per concentration, then washed
Conditions: tags: His6-TwinStrep-SUMO cleaved; N-terminal SNAP kept (SNAP-Surface 488); label: 3' end held by stalled T7 RNA polymerase

In order of falling Kd:
1. B6  0.095 ± 0.022 µM
2. B16  ~0.09 µM
3. B18  0.09 ± 0.04 µM
4. B27  0.087 ± 0.023 µM
5. B5  0.068 ± 0.016 µM
6. B11  0.061 ± 0.012 µM
7. B28  ~0.06 µM
8. B14  0.056 ± 0.006 µM
9. B22  0.052 ± 0.007 µM
10. B19  0.051 ± 0.009 µM
11. B2  0.042 ± 0.006 µM
12. B9  0.042 ± 0.004 µM
13. B8  0.038 ± 0.004 µM
14. B13  0.034 ± 0.007 µM
15. B4  0.025 ± 0.005 µM
16. B10  0.0237 ± 0.0026 µM
17. B7  0.0234 ± 0.0027 µM
18. B15  0.0187 ± 0.0013 µM
19. B3  0.0158 ± 0.0006 µM
20. B24  0.0147 ± 0.0009 µM
21. B1  0.0135 ± 0.001 µM
22. B25  0.0115 ± 0.0011 µM
23. B26  0.0109 ± 0.0005 µM
24. B20  0.0105 ± 0.0005 µM
25. B21  0.0085 ± 0.0011 µM
26. B12  0.0078 ± 0.0005 µM
27. B23  0.0072 ± 0.00033 µM
28. B17  0.007 ± 0.0005 µM
